Patent publication US20230046828A1 (OXFORD UNIVERSITY INNOVATION, published 2023)

Assays:
[1] = molecular target: T1, CXCL12 (CXC Ligand 12) (UniProt O62657 22-89); experiment: BLI, biotinylated HMGB1 construct on streptavidin sensor, CXCL12 0-150 µM in solution; Michaelis-Menten (saturation) Req fit
T1 construct: mature; Untagged in BLI and NMR; CXCL12-His6 was used at 1 µM on the HMGB1 SPOT peptide arrays; also called CXCL12A-c021, wt 1-67, no tag; CXCL12-His6
Method: (§1) Pre-hydrated streptavidin Octet Biosensors (FortéBio 18-5019) were coated with 4 μM solutions of biotinylated HMGB1 proteins in 10 mM HEPES, pH 7.5, 150 mM NaCl (Base buffer-BB) plus, 0.5 mM TCEP (60″ baseline, 60″ binding). Nonspecific binding was minimized by incubation for 3′ in BB+1% BSA+0.05% Tween-20 (Kinetics Buffer, KB) prior to kinetics assays. […] An OctetRed 384 instrument was used for these experiments. Kinetics data were extracted with DataAnalysis 9.0 (FortéBio). Response at equilibrium REq was plotted against concentration in a Michaelis-Menten saturation plot to calculate kD/Bₘₐₓ (saturation plot of concentration against rEq). Kinetic rates (association rate; kₒₙ and dissociation rate; koff) were derived from the direct measurements of each parameter from all the association and dissociation steps in the interferogram, and fitted to a horizontal line (mean) across all measurements. Data from each replicate run were pooled in the same manner to calculate the overall mean. For measuring RAGE binding kinetics to HMGB1, 15 μg/mL RAGE-Fc in PBS+0.1% BSA+0.02% Tween-20 was immobilized on the surface of anti-IgG biosensors (AHC, 18-5060) over 30″ and dipped in serial concentrations of each HMGB1 construct (60″ baseline, 200″ association/dissociation) and fitted in the same manner to derive kinetic parameters.

[2] = molecular target: T1, CXCL12 (CXC Ligand 12); experiment: BLI, biotinylated HMGB1 construct on streptavidin sensor, CXCL12 0-150 µM in solution; kinetics rates derived from interferogram
Method: as §1

[3] = molecular target: T2, RAGE-Fc chimera protein (BioTechne, 1145-RG) (UniProt Q15109 24-344); experiment: BLI: RAGE-Fc on AHC sensors, HMGB1 construct 0-25 µM in solution; kinetics plot
T2 construct: Bought reagent; also called Fc-RAGE; not shown: CH domain of IgG (Fc)
T2 sequence (Q15109 24-344, change not shown): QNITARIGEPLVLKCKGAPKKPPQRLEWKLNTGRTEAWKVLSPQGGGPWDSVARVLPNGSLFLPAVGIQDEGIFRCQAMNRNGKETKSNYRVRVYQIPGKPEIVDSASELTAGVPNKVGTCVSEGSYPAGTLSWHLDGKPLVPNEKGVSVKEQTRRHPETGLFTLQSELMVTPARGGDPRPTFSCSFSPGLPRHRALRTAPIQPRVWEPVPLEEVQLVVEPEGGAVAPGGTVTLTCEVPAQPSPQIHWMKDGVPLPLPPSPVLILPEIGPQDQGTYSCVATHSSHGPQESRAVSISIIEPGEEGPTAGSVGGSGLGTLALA
Method: (§2) RAGE-Fc was immobilized in the surface of AHC sensors and dipped in rising concentration of different HMGB1 constructs. Two experiments were run with different concentration ranges: the three columns of graphs in the left, 0 to 22.22 μM HMGB1 over 9 steps; on the right, 0 to 25 μM over 7 steps. Both are color-coded by concentration (top). Colors indicate the specific construct concentration. Each graph corresponds to a single sensor (replicate).
as §1

[4] = molecular target: T2, RAGE-Fc chimera protein (BioTechne, …); experiment: BLI: RAGE-Fc on AHC sensors, HMGB1 construct 0-25 µM in solution; saturation fit
Method: as §2, §1

[5] = molecular target: T2, RAGE-Fc chimera protein (BioTechne, …); experiment: hybrid ELISA: HMGB1 construct coated, RAGE-Fc titrated, anti-human IgG-HRP, OD450 normalized to DS-HMGB1; saturation fit (Kd cell: Invalid fit)
Method: (§3) Nonspecific binding was blocked by incubation with 10% BSA in PBS for 2 h, at 20-25° C. A concentration range of RAGE-Fc chimera protein (BioTechne, 1145-RG; 0-640 nM in 1:4 dilutions) was added in 10% BSA/PBS and allowed to bind for 2 h, at 4° C. Bound FC chimera was detected by incubation with Anti-Human IgG HRP (Agilent Dako P021402-2) diluted 1:10000 in 1% BSA/PBS for 2 h, at 20-25° C. Between each of these 3 steps, the plate was washed with 100 μL PBST, three times.
(§4) OD 450 was measured as a readout (FluoStar OMEGA, BMG Labtech) and plotted as a saturation fit against 2× RAGE-Fc concentration (as the chimera is a RAGE dimer).

[6] = molecular target: T2, RAGE-Fc chimera protein (BioTechne, …); experiment: BLI, RAGE-Fc on AHC sensors
Method: as §1

[7] = molecular target: T2, RAGE-Fc chimera protein (BioTechne, …); experiment: hybrid ELISA: HMGB1 construct coated, RAGE-Fc titrated, anti-human IgG-HRP, OD450 normalized to DS-HMGB1; saturation fit
Method: as §3, §4

T1 sequence (P48061 22-89): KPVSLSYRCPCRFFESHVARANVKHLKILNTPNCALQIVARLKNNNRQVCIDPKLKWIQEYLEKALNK

Kd [1] [µM] | Kd [2] [µM] | koff [2] [s⁻¹] | kon [2] [M⁻¹ s⁻¹] | Kd [3] [µM] | koff [3] [s⁻¹] | kon [3] [M⁻¹ s⁻¹] | Kd [4] [µM] | Bmax [5] [nM] | fold association rate against FR-HMGB1 [6] [fold] | fold dissociation rate against FR-HMGB1 [6] [fold] | Kd [7] [µM] | Kd [6] [µM] | Binder
8.19 | 7.1 | 0.159 | 22000 | – | – | – | – | – | – | – | – | – | FR-HMGB1 Box B 89-174 (full HMG Box with flanking regions) (ligand, biotinylated in BLI and NMR, also called complete Box B; not shown: C-terminal biotinylation tag) SMKDPNAPKRPPSAFFLFCSEYRPKIKGEHPGLSIGDVAKKLGEMWNNTAADDKQPYEKKAAKLKEKYEKDIAAYRAKGKPDAAKKGV
65 | 39 | 0.64 | 16000 | – | – | – | – | – | – | – | – | – | FR-HMGB1 Box B 94-162 (helical-only) (ligand, also: biotin or His6 tag in some assays, sequence not given here, also called HMGB1A-c028; not shown: C-terminal Avi / biotinylation tag (BLI, NMR) or His6 tag (reverse peptide array)) PKRPPSAFFLFCSEYRPKIKGEHPGLSIGDVAKKLGEMWNNTAADDKQPYEKKAAKLKEKYEKDIAAYR
12.6 | 6.1 | 0.079 | 13000 | – | – | – | – | – | – | – | – | – | FR-HMGB1 Box A 1-88 (full HMG Box with flanking regions) (ligand, biotinylated in BLI, also called extended box A 1-88; c037; not shown: biotinylation tag) GKGDPKKPRGKMSSYAFFVQTCREEHKKKHPDASVNFSEFSKKCSERWKTMSAKEKGKFEDMAKADKARYEREMKTYIPPKGETKKKF
– | – | – | – | 15.6 | 0.439 | 28000 | 53.4 | 0.08 | – | – | – | – | DS Box A 1-88 (full HMG Box construct with flanking regions) (ligand, oxidized (disulfide Cys 22-Cys 44), also called oxidized Box A alone) GKGDPKKPRGKMSSYAFFVQTCREEHKKKHPDASVNFSEFSKKCSERWKTMSAKEKGKFEDMAKADKARYEREMKTYIPPKGETKKKF
– | – | – | – | 0.9 | 0.152 | 178000 | 3.1 | 0.2 | – | – | – | – | DS-HMGB1 1-164 (ligand, oxidized Box A (disulfide Cys 22-Cys 44)) GKGDPKKPRGKMSSYAFFVQTCREEHKKKHPDASVNFSEFSKKCSERWKTMSAKEKGKFEDMAKADKARYEREMKTYIPPKGETKKKFKDPNAPKRPPSAFFLFCSEYRPKIKGEHPGLSIGDVAKKLGEMWNNTAADDKQPYEKKAAKLKEKYEKDIAAYRAK
– | – | – | – | 1.3 | 0.206 | 164000 | 5.5 | 0.06 | 3 | 5 | – | – | dBB12L (double Box B HMGB1 construct with 12-residue linker) (ligand, also called dBB12L-HMGB1; dBB-HMGB1) KDPNAPKRPPSAFFLFCSEYRPKIKGEHPGLSIGDVAKKLGEMWNNTAADDKQPYEKKAAKLKEKYEKDIAAYRAKGKPDAAKKGVKDPNAPKRPPSAFFLFCSEYRPKIKGEHPGLSIGDVAKKLGEMWNNTAADDKQPYEKKAAKLKEKYEKDIAAYRAKGKPDAAKKGV
– | – | – | – | 0.2 | 0.067 | 349000 | 0.5 | – | – | – | 0.0339 | – | DS-HMGB1 1-184 (ligand, oxidized Box A (disulfide Cys 22-Cys 44)) GKGDPKKPRGKMSSYAFFVQTCREEHKKKHPDASVNFSEFSKKCSERWKTMSAKEKGKFEDMAKADKARYEREMKTYIPPKGETKKKFKDPNAPKRPPSAFFLFCSEYRPKIKGEHPGLSIGDVAKKLGEMWNNTAADDKQPYEKKAAKLKEKYEKDIAAYRAKGKPDAAKKGVVKAEKSKKKK
17.5 | 18.7 | 0.312 | 17000 | – | – | – | – | – | – | – | – | – | FR-HMGB1 Box A 8-78 (helical-only) (ligand, biotinylated in BLI, also called minimal Box A 8-78; c027; not shown: biotinylation tag (BLI) or His6 tag (reverse peptide array)) PRGKMSSYAFFVQTCREEHKKKHPDASVNFSEFSKKCSERWKTMSAKEKGKFEDMAKADKARYEREMKTYI
15.3 | 20.9 | 0.181 | 9000 | 0.8 | 0.041 | 51000 | 2.3 | – | – | – | 0.0861 | – | fully-reduced HMGB1, full-length (1-214) (ligand, cysteines reduced (Cys 22, Cys 44, Cys 105), Tags differ by assay: biotinylated (c011) in BLI with CXCL12, His6-tagged in the reverse peptide array, TEV-cleaved in the RAGE ELISA and BLI; also called FR-HMGB1; FR FL-HMGB1 (c011)) GKGDPKKPRGKMSSYAFFVQTCREEHKKKHPDASVNFSEFSKKCSERWKTMSAKEKGKFEDMAKADKARYEREMKTYIPPKGETKKKFKDPNAPKRPPSAFFLFCSEYRPKIKGEHPGLSIGDVAKKLGEMWNNTAADDKQPYEKKAAKLKEKYEKDIAAYRAKGKPDAAKKGVVKAEKSKKKKEEEEDEEDEEDEEEEEDEEDEDEEEDDDDE
– | – | – | – | 0.2 | 0.043 | 215000 | 1.3 | – | – | – | 0.00435 | 0.2 to 1.3 | disulfide HMGB1, full-length (ligand, disulfide bond between Cys 22 and Cys 44, also called DS-HMGB1; FL-DS-HMGB1) GKGDPKKPRGKMSSYAFFVQTCREEHKKKHPDASVNFSEFSKKCSERWKTMSAKEKGKFEDMAKADKARYEREMKTYIPPKGETKKKFKDPNAPKRPPSAFFLFCSEYRPKIKGEHPGLSIGDVAKKLGEMWNNTAADDKQPYEKKAAKLKEKYEKDIAAYRAKGKPDAAKKGVVKAEKSKKKKEEEEDEEDEEDEEEEEDEEDEDEEEDDDDE
8.79 | 11.7 | 0.145 | 12000 | 0.9 | 0.015 | 17000 | 3 | – | – | – | 0.00722 | – | non-oxidizable 3S-HMGB1, full-length (1-214) (ligand, Biotinylated (c022) in BLI with CXCL12, His6-tagged in the reverse peptide array; also called 3S-FL HMGB1 (c022)) GKGDPKKPRGKMSSYAFFVQTSREEHKKKHPDASVNFSEFSKKSSERWKTMSAKEKGKFEDMAKADKARYEREMKTYIPPKGETKKKFKDPNAPKRPPSAFFLFSSEYRPKIKGEHPGLSIGDVAKKLGEMWNNTAADDKQPYEKKAAKLKEKYEKDIAAYRAKGKPDAAKKGVVKAEKSKKKKEEEEDEEDEEDEEEEEDEEDEDEEEDDDDE
